The DeepSol protein solubility set

Assay: soluble on expression in E. coli; label from the status in PepcDB or PDB records
In the case of “MFKILRKERLAPGINLFEIESPRIAKHAKPGQFVMIRLHEKGERIPLTIADVDISKGSITIVAQEVGKTTRELGTYEAGDYILDVLGPLGKPSHIDYFGTVVMIGGGVGVAEIYPVAKAMKEKGNYVISILGFRTKDLVFWEDKLRSVSDEVIVTTNDGSYGMKGFTTHALQKLIEEGRKIDLVHAVGPAIMMKAVAELTKPYGIKTVASLNPIMVDGTGMCGACRVTVGGEVKFACVDGPEFDAHLVDWDQLMNRLAYYRDLEKISLEKWERERRMV”, the “soluble on expression in E. coli” value is reported as “not soluble”. With “MFKIVYPNAKDFFSFINSITNVTDSIILNFTEDGIFSRHLTEDKVLMAIMRIPKDVLSEYSIDSPTSVKLDVSSVKKILSKASSKKATIELTETDSGLKIIIRDEKSGAKSTIYIKAEKGQVEQLTEPKVNLAVNFTTDESVLNVIAADVTLVGEEMRISTEEDKIKIEAGEEGKRYVAFLMKDKPLKELSIDTSASSSYSAEMFKDAVKGLRGFSAPTMVSFGENLPMKIDVEAVSGGHMIFWIAPRLLEHHHHHH” the “soluble on expression in E. coli” value was “soluble”. In the case of “MFKKLSVLALAMIISLSITACNSKENKANDESNTKVTTADDSKEKETLFVYSGAGLKKPMDEIAKKFEKENNVKVEYSYAGSAQLIAQIETSHKGDVFIVGSEPIYSKAFEKELVGEHKTVAHHTPAIVVPKGNPANIQKLEDLNKDGVKLILGDKESNAIGKTTQKILEKNNLKSINDNVVSTAATVNEMIVQLTSSKADATIATKDSVFGNEDVEVIEIAQDKNIDQLISAGIVNYSDKKDLANKFINYIESDEAKQIFKKYGFEPVK”, the “soluble on expression in E. coli” value is reported as “not soluble”. For “MFKLVGKEAFKVGDMKCIINVEALGTFAYEYSLDVNGKTFNKFKEEQNKRLHSWETTLSGHQWRVVLDKESMEIWANGNNIDTAGEFVDNGTVTHFELGKNPCKIIAQSSGKKKTGVTHTLYVNGEIVPSTVDKPNPSNQPGSS”, the “soluble on expression in E. coli” value was “not soluble”. For “MFKRFRRLRLNENLRSMVRENSLSVNDLIYPLFVVNGTGIKKEISSMPDVFQMSLDEILKECQNVVNLGIKAIILFGVLENEKKDSCGSDALDDEGLVARSIREIKKNFPDLFIISDLCFCEYTDHGHCGIIDPKIKSVDNDATLEISAKQALVHARAGVDMIAPSGMMDGVITTLRKALDKEGFENLPIMAYSTKFASSYYGPFRDVAESAPSYGDRKSYQMDFANGKEALEESLEDEAQGADILMVKPALAYLDVVKEISLHSNLPLCIYNVSGEYAMLKAAKNAGVIDYEKVLYETIIAFKRAGAKLIITYHAKELAKMLKGEK”, the “soluble on expression in E. coli” value was “soluble”. For “MFKRIGLISIALSLNTISFTSEACSALVFNKNKPATVAVNLDWKYREGAFVIHPRNAMMVSSVDYHSMHPLIWKSQYGSVIFHGGNRFKAGPSADGMNEKGLTASILMLDSSIYPSNSELPALKTTEWVQYILDNFQTVQEVIDDSSNYQLVADTYRGITMNVHLMVSDAEGKSAVFEYLDGKLVIHTQDNLTTPVLTNTDYKLSLALLEEYQDHGGSKALPGGYDSKSRFVRAAHYLKKLPSFIAKEEHIAYAFNGLNVVTQAPGTSSPTQLSMVFDIPTKTIYFRSINEAALRVIPMDSIDFDYLYQPIALNVYQHLSGDVTDKFQPMIG”, the “soluble on expression in E. coli” value was “not soluble”. With “MFKSVAKLGKSPIFYLNSQRLIHIKTLTTPNENALKFLSTDGEMLQTRGSKSIVIKNTDENLINHSKLAQQIFLQCPGVESLMIGDDFLTINKDRMVHWNSIKPEIIDLLTKQLAYGEDVISKEFHAVQEEEGEGGYKINMPKFELTEEDEEVSELIEELIDTRIRPAILEDGGDIDYRGWDPKTGTVYLRLQGACTSCSSSEVTLKYGIESMLKHYVDEVKEVIQIMDPEQEIALKEFDKLEKKLESSKNTSHEK” the “soluble on expression in E. coli” value was “soluble”. For “MFLQHNNQLICNLEKMGLTENEAKAYVGLVSLGEATAREVHELTNVPRAKIYEVLKVLAKRGYLEVRQGSPTYFRAVDPKQVIGKIKDEFINCAIETLDQLNELSYELPRTSPVWCIQSEWGIKNRIREILNGVKEELIVFSSSPRFFQEFEAELKKLEKTCQLTFIISEPEKFESFPFEFRETTKEFREFLNNIVIDGIRYDEEFFMIADGKESIGVHSAGDKREAVVIKLPVVCYLQKMIYDRVLEPSFVKKNRKSA”, the “soluble on expression in E. coli” value was “not soluble”. For “MFLTWENLFLTNQSRRRLKLLVVERSYNNVGNFLKEYFGGFFEIVNFDDLRLTMVDMVSLSSEYDVIVTDMILEQTTDSEILFFNQMAPSVVANRLTDM”, the “soluble on expression in E. coli” value was “not soluble”. For “MFMSTDEVRRAFLSFFESKGHQIVESSSLVPANDPTLLFTNAGMNQFKDCFLGLEKRAYTRATTAQRCVRAGGKHNDLENVGFTARHHTFFEMLGNFSFGDYFKEDAIQYAWEFLTDVLQLPKERLLVTVYETDDEAFDIWNKKVGIPADRIIRIGDKKGGKKFDSDNFWQMGDTGPCGPCTEIFYDHGDHIWGGPPGSPEEDGDRFIEIWNNVFMQFNRHADGTMEPLPKPSVDTGMGIERISAIMQGVHSNYEIDVFQTLIKAAADAIGYQDLTNQSLRVVADHIRSCAFLIVDGVMPSNEGRGYVLRRIIRRAVRHGNKLGAQGAFFHKLVGPLAEVMGTAGVELKKQQALVEKVLRIEEENFGRTLDRGMSILNDALDQLSGQVLDGETVFKLYDTYGFPADLTNDVARERGFSIDEAGFEQAMEEQRQRAREAGQFGTDYNSLIKSATNTEFCGYTASRGQSVVREMFVEGAEVSTLSAGDKAIIVLDNTPFYAESGGQCGDTGVLKTDAGIFHVEDTQKLGNAIAHHGVIAQGVLATGDQVDAIVDEKRRAAISLNHSATHLLHAALRKVLGEHVAQKGSLVRAETLRFDFSHLEAMTAAEIKEVERLVNQEVRRNHSIETNIMNIDEAKAKGAMALFGEKYDDQVRVLSMGDFSTELCGGIHASNTGDIGLFKIISEGGIAAGIRRIEAVTGEGALDYLDAQQAQHDAKVSEMAAKAKLLEKEIQQLKDKLAAKESAGLINQVKQIAGVNVLVAQLNGADNKALRGMVDDLKNQLSSGIIMLGNVAEGKVGLIAGVTNDLTNKVKAGELVNMVALQVGGKGGGRPDMAQAGGTDAHALPSALESVDAWIAERL”, the “soluble on expression in E. coli” value was “not soluble”. In the case of “MFNKKENSSPDVFDTLIGVNTFLEGNIETEGTVRIDGKIKGNVKVKGDVYIGKDANINGNISANNVYMSGRVDGNIEAKGVLRILSTAQLYGDILVQSLISDEGSIFEGNCKMVSASNAQNSDGSVSKNNKNVKDKDGDKSHTSA”, the “soluble on expression in E. coli” value is reported as “not soluble”. With “MFPYFESVATASTEFHAIEPDPHMRRQAAEQANTQATPIHIESSPAEALPYYEDTFDVVITSMVFCTIPDIESAMSEITRVLKPGGELRFFEHVIDDGWRARLQSALAPLWKRLAGGCHLTRQTGTRLVADQSFDVVEIERLNLGITPIRPFVRGRLRKRSVSSTRLEHHHHHH” the “soluble on expression in E. coli” value was “not soluble”. For “MFQAQHLTKSFGDLVLFEDLSFSIERGEKVGLIARNGNGKTTLMNILTGIDSPDSGEVIYQNGIRRAYLPQLPQVLPGSTVLETCFGHNDEMTSLIAQWEEASARGDGKRMEELLPEMDALGAWEYEQRAREILTRLHLDDLHCTTDNLSGGELKRIALAGTLIGNPELLFLDEPTNHLDLDVIEWLEGYLSHQQIGLLLVTHDRYFLDRVCNRILELDNKQLYAYKGNYEYYLNKREERLEATERETSRAANLLRREAEWMHRRPQARGTKAKSRIDAFYELKEKAQPRHRDETLHLSEQGRYIGNKIFEAHKVCKAFGDRTILSDFDYIFSRYDKVGIVGPNGVGKTTFLRLLLGEEKPDSGYFDVGETVRFGYYSQKGMQFDENKRVIEAVQDIAEVIRNEKDGTTLSASALLTQFLFPPEKQYTPIHKLSGGEQRRLYLCTVLMKNPNFLILDEPTNDLDILTLNVLENYLSEFKGCVLVVSHDRFFMDKVVNHLFTFEGNGIVKDFPGNYTQYREYKQQEEAERQTVESSPSTRKAESEKPRTDAAERPRKLTFKEKQELERLEAELPKLEKEKAELESRMSSGTMATDELLTAGDRIAALIEEIDSKGMRWLELSDI”, the “soluble on expression in E. coli” value was “not soluble”. With “MFQASMRSPNMEPFKQQKVEDFYDIGEELGSGQFAIVKKCREKSTGLEYAAKFIKKRQSRASRRGVSREEIEREVSILRQVLHHNVITLHDVYENRTDVVLILELVSGGELFDFLAQKESLSEEEATSFIKQILDGVNYLHTKKIAHFDLKPENIMLLDKNIPIPHIKLIDFGLAHEIEDGVEFKNIFGTPEFVAPEIVNYEPLGLEADMWSIGVITYILLSGASPFLGDTKQETLANITAVSYDFDEEFFSQTSELAKDFIRKLLVKETRKRLTIQEALRHPWITPVDNQQAMVRRESVVNLENFRKQYVRRRWKLSFSIVSLCNHLTRSLMKKVHLRPDEDLRNCESDTEEDIARRKALHPRRRSSTS” the “soluble on expression in E. coli” value was “soluble”. For “MFQDMSKDFDIKRIKRSNTSCSTGVGAHVHPFNEIFYLSSGECTSFIDHNIYKFGKGDLVIVPSGCLHRTTYNGKGMHERIVISFRNEATEWIQNQTGKELMENCMKPGVVNIPEKRRDYVVALLDKLIFENDSPDELSPAFIKVGLIELLLFIIRCKNYEENVIKEIDVDNR”, the “soluble on expression in E. coli” value was “not soluble”. With “MFQKVDAYAGDPILTLMERFKEDPRSDKVNLSIGLYYNEDGIIPQLQAVAEAEARLNAQPHGASLYLPMEGLNCYRHAIAPLLFGADHPVLKQQRVATIQTLGGSGALKVGADFLKRYFPESGVWVSDPTWENHVAIFAGAGFEVSTYPWYDEATNGVRFNDLLATLKTLQAGSIVLLHPCCHNPTGADLTNDQWDAVIEILKARELIPFLDIAYQGFGAGMEEDAYAIRAIASAGLPALVSNSFSKIFSLYGERVGGLSVMCEDAEAAGRVLGQLKATVRRNYSSPPNFGAQVVAAVLNDEALKASWLKEVEEMRTRILAMRQELVKVLSTEMPERNFDYLLNQRGMFSYTGLSAAQVDRLREEFGVYLIASGRMCVAGLNTANVQRVAKAFAAVM” the “soluble on expression in E. coli” value was “soluble”. With “MFQTFEGDLKWHHHNITYWIQNYSEDLPRAVIDDAFARAFALWSAVTPLTFTRVYSRDADIVIQFGVAEHGDGYPFDGKDGLLAHAFPPGPGIQGDAHFDDDELWSLGKGQGYSLFLVAAHEFGHALGLDHSSVPEALMYPMYRFTEGPPLHKDDVNGIRHLY” the “soluble on expression in E. coli” value was “soluble”. In the case of “MFRRLILRQAAAVAAESKIACHHTVHGFEQRRGLHSRNEKAMEYVAKGWSAIKEVERVIDYCELNDRRLIPLLRGAKENFELALEADNLNTHARYWLSKLHLKYHVPGACKAVGAALLVEAADMGNADAQYELGCRLRVENDHVQSDQQAFHYIENAVDQLHPGALYLLGIVYLTGDCVKQDVDSAIWCFHRASEKGHAGAAIAYGSLLLRGVQVPESLTKLNVVGVSPPKRARKNLENPEMNPLEMAKEQFQIAARAGCDLGLKWLQRVEQEEKLLMREQDNECAYV”, the “soluble on expression in E. coli” value is reported as “not soluble”. With “MFSDELEKISWEETTKAIYSKTDADVRRALSKEHCDVNDFMALISPAAAPYLETMARLSRKYTMERFGKTISMFVPLYITNSCTNSCVYCGFNHNNPMKRTILTEEEMVNEYKAIKKLAPFENLLLVTGENPAKAGVDYIERALLLAKPYFANLQIEVMPLKAEEYERLTHAGLNGVICFQETYNKANYNIYHPRGMKSKFEWRVNGFDRMGQAGVHKIGMGVLIGLEEWRTDITMMAYHLRYLQKHYWKTKYSVNFPRMRPSENGGFQPNVVMNDRELAQVTFAMRIFDHDVDISYSTRESAAFRNHMATLGVTTMSAESKTEPGGYFTYPQALEQFHVSDERKAVEVDAALRSLGRIPVYKDWDTALTLPQC” the “soluble on expression in E. coli” value was “soluble”. In the case of “MFSIFKRKTKQVNPFEQGWLTDLIDIHCHLLPAVDDGSKSIEETLSLIDLLEEIGVKQHILTPHIMEEYPSNDAIFLRARFEELLAAITPDKASRLRLAAEYMLDVAFLDRLAEPLLTLGDR”, the “soluble on expression in E. coli” value is reported as “not soluble”.
